From paper PMC5693944

Tests used:
Experiment in all cases: SEC-MALS
[1] = biological target: MucR from Brucella abortus (Brucella abortus 2308)
[2] = biological target: Ml2 protein from Mesorhizobium loti (Mesorhizobium loti)
[3] = biological target: Ml1 protein from Mesorhizobium loti (Mesorhizobium loti)

MucR from Brucella abortus (natural protein)
stoichiometry N [1]: 10.4

Ml2 protein from Mesorhizobium loti (natural protein)
stoichiometry N [2]: 9.96

Ml1 protein from Mesorhizobium loti (natural protein)
stoichiometry N [3]: 10.4
